The results in this text go back to paper PMC8647176, “Helical filament structure of the DREP3 CIDE domain reveals a unified mechanism of CIDE-domain assembly” (Acta Crystallographica. Section D, Structural Biology, 2021).

The series concerns the molecule itself. The series is described as follows: SEC; Superdex 200 Increase 10/300 GL, 20 mM Tris-HCl pH 7.9, 500 mM NaCl; also series at 1, 5 and 15 mg ml^-1 protein and at four NaCl concentrations. A general note: Size exclusion chromatography separates by hydrodynamic size, large species first.

B1: DREP3 CIDE domain (DNA fragmentation factor-related protein 3, residues Phe112-Asp195) (domain or fragment, Drosophila melanogaster, UniProt Q0E9B7 112-195, looked up)
chain: FAQLDNSKPFKIKDITRNIRKAVVATTLSELRTKVSLKFERAQPAIHLDCDGTEVDDEEYFSTLEPNAELIAVFPGEQWRDPSD
notes: DREP3 (DNA fragmentation factor-related protein 3), Drosophila melanogaster, UniProt Q0E9B7, CIDE domain, residues Phe112-Asp195; Cloned with NdeI and XhoI into pET-21a; The final model of PDB 7v6e holds residues 117-193; also called wild-type DREP3 CIDE domain; WT DREP3 CIDE domain; source: E. coli BL21 (DE3), purified (Ni-NTA, SEC)
For the protein B1, the binding result was “binds”.
